Experimental data published in patent US20200181597A1, “Composition and Application of Arginine-depleting Agents for Cancer, Obesity, Metabolic Disorders, and Related Complications and Comorbidities” (THE HONG KONG POLYTECHNIC UNIVERSITY, priority 2018, published 2020).

Tests used:
[1] = literature; cited from earlier work
[2] = biological target: human serum albumin (HSA) (Homo sapiens, UniProt P02768); test: Binding to HSA on non-denaturing PAGE; conditions: fixed HSA titrated at various molar ratios
Description: When ABD is fused to rhArg or BCA, it is important for the fusion protein to retain both the albumin binding capacity and the enzymatic activity. […] The reaction mixtures were analyzed in their native condition on non-denaturing PAGE where the proteins were separated by size and conformation.
In FIG. 7, the mobility of each of HSA and N-ABD-rhArg (SEQ ID NO: 49) alone are shown in Lanes 2 and 3 of the non-denaturing PAGE, respectively (FIG. 7). A fixed amount of HSA (30 pmoles) was titrated against N-ABD-rhArg (SEQ ID NO: 49) at various molar ratios and the results are illustrated in Lanes 5-9. […] In FIG. 8, the mobility of each of HSA and BHA (SEQ ID NO: 75) alone are shown in Lanes 6 and 7 of the non-denaturing PAGE, respectively (FIG. 8). A fixed amount of HSA (60 pmoles) was titrated against BHA (SEQ ID NO: 75) at various molar ratios and the results are illustrated in Lanes 1-5.

[3] = system: plasma arginine; test: Plasma arginine after single i.p. dose of N-ABD-rhArg (Biochrom 30); type: in vivo, BALB/c mice
Description: FIG. 10 illustrates plasma arginine concentrations, measured using the Biochrom 30 Amino Acid Analyzer, of BALB/c mice after receiving intraperitoneal injection of a single dose of (A) 125U; (B) 250U; and (C) 500U of N-ABD-rhArg (SEQ ID NO: 49). N-ABD-rhArg (SEQ ID NO: 49) was injected at day 0.
Fifteen female BALB/c mice (10 weeks of age) were used in this study. They were kept in groups of five per cage. A single dose of N-ABD-rhArg (SEQ ID NO: 49) (500 U, 250 U, and 125 U, respectively) was administered to the mice via i.p. injection. Blood samples were collected from the saphenous vein using heparinized capillary tubes, and were centrifuged at 800×g to obtain plasma. Sixteen microliters of plasma sample was subjected to measurement of L-arginine concentration using the Biochrom 30 Amino Acid Analyzer. […] In comparing with BHA (SEQ ID NO: 75) (FIG. 9), N-ABD-rhArg (SEQ ID NO: 49) can deplete arginine to a very low level in the mice for exceptionally longer period, which highlights the importance of the requirement for rational design of the fusion protein.

[4] = system: 4T1 breast cancer xenograft; test: 4T1 breast cancer xenograft in nude mice; type: in vivo, female nude mice
Description: (§1) For the aggressive 4T1 breast cancer cell xenograft model studies, 10 female nude mice (11-12 weeks of age) were used. They were kept in groups of five per cage and provided food and water ad libitum. The 4T1 cancer cells were harvested by trypsinization and washed twice with 1×PBS and resuspended in 1×PBS for inoculation. The cancer cells (1×10^6 cells of 4T1) were injected subcutaneously into the left flank of the mice. […] They were injected with either 500U (3.2 mg, 230 μL) N-ABD-rhArg (SEQ ID NO: 49) or 1×PBS once per week. Blood samples were collected from the saphenous vein. Tumor size and the body weight of mice were monitored regularly. The tumor volume was estimated by the following equation: […]
The mice were sacrificed after 16 days of cancer cell inoculation (i.e. 13 days after starting of the experiment) because of necrosis of tumor in the PBS-injected control group. After being sacrificed, tumors were collected from the mice and the weight of the tumor was measured. Lungs were also collected and washed with 1×PBS. The lungs were fixed in Bouin's solution overnight and washed with 1×PBS after fixation. Lung metastatic nodules were counted.

[5] = system: serum arginine; test: Serum arginine in 4T1 xenograft nude mice (Biochrom 30); type: in vivo; conditions: BDL: Below Detection Level
Description: as §1
Importantly, 500U of the albumin-binding arginase N-ABD-rhArg (SEQ ID NO: 49) depleted arginine to a level below the detection limit of the Biochrom 30 Amino Acid Analyzer (3 μM) for at least 10 days in BALB/c mice (FIG. 10). Therefore, 500 U of N-ABD-rhArg (SEQ ID NO: 49) was administered via i.p. injection once per week to the 4T1 breast cancer xenograft nude mice for efficacy study.

[6] = system: 4T1 breast cancer allograft; test: 4T1 breast cancer allograft study; type: in vivo, female nude mice
Description: In another 4T1 breast cancer allograft study, female nude mice (5-6 weeks of age) were used. They were kept in groups of five per cage and provided food and water ad libitum. Cells of 4T1 breast cancer ([…]) were injected subcultuaneously into the right flank of the mice. […] There were one control group (n=8) and three experimental groups, including 500U PEGylated His-rhArg (SEQ ID NO: 101) (n=8), 500U N-ABD-rhArg (SEQ ID NO: 49) (n=6) and 250U N-ABD-rhArg (SEQ ID NO: 49) (n=8). Mice in the control group were injected with 1×PBS weekly. For the 500U ABD-rhArg group and the 250U ABD-rhArg group, mice were injected with 500U and 250U ABD-rhArg once a week, respectively; one group was injected with 500U PEG-rhArg once per week. The mice were sacrificed after 24 days of inoculation (i.e. 14 days after starting of experiment) because of necrosis of tumor in PBS control group. After sacrificing, the mice were dissected. Tumors were collected from the mice and measured their weight. Lungs were also collected and washed with 1×PBS. The lungs were fixed in Bouin's solution overnight and washed with 1×PBS after fixation. Lung metastatic nodules were counted.

[7] = Enzyme kinetics after metal ion substitution; type: biochemical
Description: Wild type arginase typically includes a Mn^2+ metal ion (D′Antonio & Christianson, 2011, Biochemistry, 50:8018-27). […] Purified N-ABD094-rhArg (SEQ ID NO: 50) in 20 mM Tris-HCl buffer (pH 7.4) was mixed with 20 mM of different divalent metal ions (Mn^2+, Ni^2+ or Co^2+), and was incubated at 52-55° C. for 15-60 min and then buffer exchanged with PBS buffer (pH 7.4).
Samples were subjected to enzyme activity and enzyme kinetic studies to determine the specific activity and catalytic efficiency (kcat/Km). Samples were applied to inductively coupled plasma atomic emission spectroscopy (ICP-OES, Agilent 700 Series ICP optical emission spectrometer) for quantitative analysis of metal content.

[8] = DIO mice treated with N-ABD094-rhArg-Co^2+; type: in vivo, C57BL/6J male mice; conditions: 25-100U i.p., within 5 weeks, from 55 g, HFD continued
Text: Production of N-ABD094-rhArg-Co^2+ [SEQ ID NO: 50 (cobalt substituted)] is described in Example 32. C57BL/6J male mice with pre-existing diet-induced obesity (DIO) received i.p. injection of 25-100U N-ABD094-rhArg-Co^2+[SEQ ID NO: 50 (cobalt substituted)] for 5 weeks, while continuously being fed a HFD.

B1: human arginase: unmodified human arginase (Georgiou et al.) (protein, UniProt P05089 1-322, looked up)
Arginase-1: MSAKSRTIGIIGAPFSKGQPRGGVEEGPTVLRKAGLLEKLKEQECDVKDYGDLPFADIPNDSPFQIVKNPRSVGKASEQLAGKVAEVKKNGRISLVLGGDHSLAIGSISGHARVHPDLGVIWVDAHTDINTPLTTTSGNLHGQPVSFLLKELKGKIPDVPGFSWVTPCISAKDIVYIGLRDVDPGEHYILKTLGIKYFSMTEVDRLGIGKVMEETLSYLLGRKKRPIHLSFDVDGLDPSFTPATGTPVVGGLTYREGLYITEEIYKTGLLSGLDIMEVNPSLGKTPEEVTRTVNTAVAITLACFGLAREGNHKPIDYLNPPK
In the case of B1, the “half-life / clearance in circulation” value [1] is listed as “a few minutes”.

B2: N-ABD-rhArg: albumin binding domain (ABD) fused N-terminally to recombinant human arginase I, SEQ ID NO: 49 (protein)
chain: MHHHHHHDEAVDANSLAEAKVLANRELDKYGVSDYYKNLINNAKTVEGVKALIDEILAALPSGSNNNNNNGSGGMSAKSRTIGIIGAPFSKGQPRGGVEEGPTVLRKAGLLEKLKEQECDVKDYGDLPFADIPNDSPFQIVKNPRSVGKASEQLAGKVAEVKKNGRISLVLGGDHSLAIGSISGHARVHPDLGVIWVDAHTDINTPLTTTSGNLHGQPVSFLLKELKGKIPDVPGFSWVTPCISAKDIVYIGLRDVDPGEHYILKTLGIKYFSMTEVDRLGIGKVMEETLSYLLGRKKRPIHLSFDVDGLDPSFTPATGTPVVGGLTYREGLYITEEIYKTGLLSGLDIMEVNPSLGKTPEEVTRTVNTAVAITLACFGLAREGNHKPIDYLNPPK
modifications: N-ABD-rhArg, Synthesized in the Lab
In the case of B2, the “binding to HSA (free HSA reduced in a proportional manner)” value [2] is reported as “specific binding”, the “time serum arginine below detection limit (3 μM)” value ([3]; single i.p. dose 125U) is reported as “at least 3 days” and the “time serum arginine below detection limit (3 μM)” value ([3]; single i.p. dose 250U) is reported as “at least 7 days”. For the same molecule, the “growth of 4T1 breast cancer xenograft” value ([4]; 500U once per week) was “inhibit the growth”, the “Number of metastatic nodules found in lungs” value ([4]; 500 U once per week, n = 4 (PBS control: 3)) was 0 and the “% of metastasis free animals” value ([4]; 500 U once per week, n = 4 (PBS control: 50%)) was 100%. For the same molecule, the “estimated tumor volume vs control group” value ([4]; 500U once per week, 12 days and 13 days after starting) was “significant difference”, the “Arginine Concentration (serum), individual mice 1-4” value ([5]; Day 6, 500 U once per week) was 0 (BDL) μM and the “Arginine Concentration (serum), individual mice 1-4” value ([5]; Day 13, 500 U once per week) was 0 (BDL) μM. For the same molecule, the “growth of 4T1 solid tumor” value ([6]; 250U once per week) was “did not inhibit the growth”, the “growth of 4T1 solid tumor” value ([6]; 500U once per week) was “inhibited the growth of the aggressive 4T1 solid tumor significantly” and the “metastasis nodules from the lungs vs control group” value ([6]; 500U once per week) was “very significantly reduced”.

B3: N-ABD094-rhArg-Co^2+: cobalt-substituted N-ABD094-rhArg enzyme (protein)
chain: MHHHHHHDEAVDANSLAEAKEAANAELDSYGVSDFYKRLIDKAKTVEGVEALKDAILAALPSGSNNNNNNGSGGMSAKSRTIGIIGAPFSKGQPRGGVEEGPTVLRKAGLLEKLKEQECDVKDYGDLPFADIPNDSPFQIVKNPRSVGKASEQLAGKVAEVKKNGRISLVLGGDHSLAIGSISGHARVHPDLGVIWVDAHTDINTPLTTTSGNLHGQPVSFLLKELKGKIPDVPGFSWVTPCISAKDIVYIGLRDVDPGEHYILKTLGIKYFSMTEVDRLGIGKVMEETLSYLLGRKKRPIHLSFDVDGLDPSFTPATGTPVVGGLTYREGLYITEEIYKTGLLSGLDIMEVNPSLGKTPEEVTRTVNTAVAITLACFGLAREGNHKPIDYLNPPK
modifications: cobalt substituted; N-ABD094-rhArg, Synthesized in the Lab
notes: cobalt-substituted N-ABD094-rhArg enzyme
With B3 the Km [7] was 270 to 350 µM, the kcat [7] was 250 to 316 s⁻¹ and the bodyweight after treatment [8] was 30 g.
